Here are results for 3 molecules from US20190185569A1 (published 2019).

For assay [1], the target named is T cell surface antigens CTLA4 and PD-1. Description: flow cytometry, PHA-stimulated CD4+ T cells; Ab 100 nM. Background: A flow cytometer gives signals particle by particle.
Assay [2] has as its target T1, CTLA4 antigen obtained by digesting CTLA4-mFc with TEV protease (human, UniProt P16410 36-161).
T1 construct: extracellular domain; Biotin-labelled when immobilised on SA sensors; also called CTLA4 protein; antigen CTLA4
Description: BLI (Fortebio), antibody amine-coupled on AR2G sensor, CTLA4 in solution. As for the experimental part: 1.2 Antibody 4G10 was immobilized to AR2GBiosensors by amine coupling method, and then blocked with ethanolamine and equilibrating in PBST, and then bound to CTLA4. CTLA4 was double gradient diluted with PB ST to the concentrations of 268.1, 134.1, 67, 33.5, 16.8, 8.38, 4.19, and 0 nM. The dissociation was also in PBST.
A general note: In BLI a coated tip is dipped into the sample, and binding shifts an interference pattern.

For assay [3], the target named is T2, PD-1-mFc (mouse, UniProt Q15116 25-170 (human entry), limits assumed).
T2 construct: extracellular domain; a TEV site is implied; not shown: mouse IgG Fc fragment (mFc)
T2 sequence (Q15116 25-170 limits assumed): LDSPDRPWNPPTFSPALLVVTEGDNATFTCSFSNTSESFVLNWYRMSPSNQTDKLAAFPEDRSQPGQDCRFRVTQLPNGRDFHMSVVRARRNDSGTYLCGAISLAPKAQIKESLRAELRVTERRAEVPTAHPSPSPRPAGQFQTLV
Description: indirect ELISA, coat PD-1-mFc 0.5 ug/mL. As for the experimental part:
TMB (Neogen, 308177) was added to react for 5 mins. The absorbance was read at the wavelength of 450 nm in a microplate reader.
On the technique in general: An ELISA detects its analyte on a solid surface through an enzyme-linked reagent.

In assay [4] the target is T3, PD-1 antigen obtained by digesting PD-1-mFc with TEV protease (UniProt Q15116 25-170, limits assumed, biotin-labelled (sites not given)).
T3 construct: extracellular domain; also called antigen PD-1
T3 sequence (Q15116 25-170 limits assumed): as above
Description: BLI (Fortebio), biotin-PD-1 on SA sensor, antibody in solution. As for the experimental part:
The antibodies were diluted with PBST from 200 nM down three fold each time. The dissociation was also in PBST.

The target in assay [5] is T2, PD-1-mFc. Kind of assay: competition ELISA, coat PD-1-mFc 0.2 ug/mL, PDL1-hFc 2 ug/ml.

T1 sequence (P16410 36-161): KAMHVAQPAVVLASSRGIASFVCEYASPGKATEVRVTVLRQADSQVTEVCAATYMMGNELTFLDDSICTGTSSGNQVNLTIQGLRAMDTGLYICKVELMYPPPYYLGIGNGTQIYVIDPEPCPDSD

hIgG (antibody): in assay [1], the MFI (fluorescence intensity) was 10.2.

B1: monoclonal antibody 4G10 (antibody, V domains shown)
VH: QVKLQESGPELVKPGASMKISCKASGYSFTGYTMNWVKQSHGKNLEWIGLINPYNNITNYNQKFMGKATFTVDKSSSTAYMELLRLTSEDSGVYFCARLDYRSYWGQGTLVTVSA
VL: QAVVTQESALTTSPGETVTLTCRSSTGAVTTSNFANWVQEKPDHLFTSLIGGTNNRAPGVPARFSGSLIGDKAALTITGAQTEDEAIYFCALWYSNHWVFGGGTKLTVLG
notes: Mouse hybridoma antibody purified on protein A; also called antibody secreted by hybridoma LT002 (CTLA4-4G10)
The term Kd denotes the free concentration of one partner at which half of the binding sites on the other are occupied at equilibrium, for simple one-to-one binding. The koff is a measure of how fast the partners let go of each other. A lower koff goes with a long-lived complex. Broadly, the kon is a measure of how fast the partners come together. A low value points to slower complex formation. In assay [2], B1 displayed a dissociation constant (Kd) of 0.301 nM, a dissociation rate constant (koff) of 0.000114 s⁻¹ and a kon of 378000 M⁻¹ s⁻¹.

B2: monoclonal antibody 14C12 (antibody, V domains shown)
VH: EVKLVESGGGLVKPGGSLKLSCAASGFAFSSYDMSWVRQTPEKRLEWVATISGGGRYTYYPDSVKGRFTISRDNARNTLYLQMSSLRSEDTALYYCANRYGEAWFAYWGQGTLVTVSA
VL: DIKMTQSPSSMYASLGERVTFTCKASQDINTYLSWFQQKPGKSPKTLIYRANRLVDGVPSRFSGSGSGQDYSLTISSLEYEDMGIYYCLQYDEFPLTFGAGTKLEL
notes: Mouse hybridoma antibody; also called antibody secreted by hybridoma LT003 (PD-1-14C12)
The term EC50 denotes the concentration giving half of the maximal effect. Higher therefore signals a less potent agent. B2 returned an EC50 in the assay with PD-1-mFc [3] of 0.175 nM. In assay [4], the dissociation constant (Kd) was determined as 0.0181 nM, the koff was 6.12e-06 s⁻¹ and the association rate constant (kon) worked out at 338000 M⁻¹ s⁻¹. In addition, the response with PD-1-mFc [5] was half-maximal at 0.853 nM (EC50).
